Test results reported in the supplement of paper PMC9170038.

Test system: MS2 coat protein
Assay: apparent KD of MS2 coat protein; higher = weaker reporter binding
Details: Eterna round: R107
Procedure, shortened: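 With or without constant ligand, designed RNA switches in 100 mM Tris-HCl pH 7.5, 80 mM KCl and 4 mM MgCl2 were titrated with SNAP-549-labelled MS2 coat protein. Concentrations went up in twofold steps from 0.7 or 1.5 nM to 3 µM. The switches had been transcribed on-chip from Illumina sequencing clusters, and apparent KD is the per-design median of normalised cluster binding-curve fits.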

[1] = input ligand: theophylline 20 uM
[2] = input ligand: theophylline 2 mM
[3] = input ligand: tryptophan 2.4 mM

Sequence	apparent KD of MS2 coat protein (input ligand: arginine 13.2 mM)	apparent KD of MS2 coat protein (input ligand: none)	apparent KD of MS2 coat protein [1]	apparent KD of MS2 coat protein [2]	apparent KD of MS2 coat protein [3]
GACAUGAGGAUCACCCAUGUACCGCGAGAAGGAGCGCGGAUAAACGCAGGUAGGUCGCUCGUGGGCUCACAUUCAAUUGUAAGCU [Digece]	17.5 nM	39.2 nM	49.8 nM	58.3 nM	31.6 nM
ACAUGAGGAUGGGAUACCAGAUACAUGAGGAUCACCCAUACAUGAGGAUCACCCAUGUCCGUCCCUUGGCAGCCCAACAUGAGGA [Exclusion Theophylline B]	77.4 nM	–	153 nM	–	150 nM
AGUGCUACGUGUAAUCAAAGAGAACCAGAUACCAGAUUAGCAUACAUCCCUUGGCAGCUGCAUACAUGAGGAUCACCCAUGUCAG [theeternabot_exclusion_MS2_Theo_A_31]	26.5 nM	–	38.4 nM	–	31.8 nM
GUAUGGAAACAUACUUGGGUAUCAUGAGAUACCAGUACAGAAAUGUACCCUUGGCAGCUCAAGCAUACAUGAGGAUCACCCAUGU [Ex Theophylline A 8]	22.5 nM	–	22.5 nM	–	15.4 nM
UCGCUCGCCGAAAGGCGAGCGAGUUGCGAUACCAGCCCGGAAACGGGCCCUUGGCAGCGCACAUGAGGAUCACCCAUGUCAUGUU [#1 Exclusion - Theophylline A Attempt #3 (HarryS)]	13.4 nM	19.4 nM	25.3 nM	58.7 nM	31.3 nM
UUAUUUAUAAUGGAUACCAGUGCUGUGGCCCGGCAUCCUGACAUGAGGAUCACCCAUGUGUACCCUUGGCAGCUGUUAUGGGUUU [XTheo B #20]	20.7 nM	–	28.3 nM	–	19.3 nM
UGACAGAUAACCGCUGGUGCUCUCGAGUUGCGAGGACCGGUACGGCCGCCACUCGACAACAUGAGGAUCACCCAUGUUGCGGGUC [Lareara]	30.7 nM	–	108 nM	156 nM	–
ACAUGAGGAUCACCCAUGUUCCUCAUUGAUACCAGUGAAUUUAGACGCCCUUGGCAGCGAGUUUUUUUAUAAGAAGUUUUUUUUU [6.G]	280 nM	–	659 nM	–	900 nM
ACAUUGCGCUCGGCCGCCACUGCCUUAUGAUUAUAAGGAUUAAUGAACAUGAGGAUCACCCAUGUCAGGACCGGGAGCGAACCAU [SSTryp B #6]	11.4 nM	–	16 nM	14.1 nM	–
GGCCCGGACUUGGAAUGGGUGUUUCCCUCACGAGGACCGGUACGGCCGCCACUCGAAGACAUGAGGAUCACCCAUGUAGUCGACA [Qudirate]	31.2 nM	–	78 nM	138 nM	–
UAUAUAUAGGGAAGGAGCGGGAACAUGAGGAUCACCCAUGUACAUGAGGAUCACCCAUGUACCCAGGUAGGUCGCCCAUAUAUAU [Exclusion - Arginine B]	90.7 nM	250 nM	227 nM	276 nM	241 nM
CCUAUGCAGUCGGCCGCCACUGAAAUAAAUUAUAUUACCUCAGAAACAUGAGGAUCACCCAUGUACAGGACCGGGACUGUAUAGG [Ex Tryptophan B 15]	26 nM	35.3 nM	44.2 nM	26.2 nM	56.3 nM
AGUGUUGUAACUGAUACCAGACCUUUGCUUAUACAUGAGGAUCACCCAUGUAAAAUGGCGGUCCCUUGGCAGCAGAGAAGACGCA [#10 Same State - Theophylline B]	41.5 nM	–	27 nM	–	41.9 nM
UCGCCCGGGUCGGCCGCCACUGAGGUAAUAUGACAUGAGGAUCACCCAUGUUGUCAUGUGGAACAUAGGACCGGGACCCGGGCGA [Exclusion - Tryptophan B Attempt #1 (HarryS)]	9.15 nM	8.61 nM	15.1 nM	15.2 nM	13.4 nM
GAACAACAUGAGGAUCACCCAUGUCAGGAUACCAGUCGAAAGUCAGACCCUUGGCAGCCUAUCACUCAGCAAAUAGAUAGUACAA [theeternabot_sameState_MS2_Theo_A_12]	14.7 nM	–	20.4 nM	–	16.2 nM
